Consider 2 variants from IntAct's records for PubMed 18488041.

To fix the notation:
B1: Proto-oncogene vav (Mus musculus), P27870 (parent)
chain: MELWRQCTHWLIQCRVLPPSHRVTWEGAQVCELAQALRDGVLLCQLLNNLLPQAINLREVNLRPQMSQFLCLKNIRTFLSTCCEKFGLKRSELFEAFDLFDVQDFGKVIYTLSALSWTPIAQNKGIMPFPTEDSALNDEDIYSGLSDQIDDTAEEDEDLYDCVENEEAEGDEIYEDLMRLESVPTPPKMTEYDKRCCCLREIQQTEEKYTDTLGSIQQHFMKPLQRFLKPQDMETIFVNIEELFSVHTHFLKELKDALAGPGATTLYQVFIKYKERFLVYGRYCSQVESASKHLDQVATAREDVQMKLEECSQRANNGRFTLRDLLMVPMQRVLKYHLLLQELVKHTQDATEKENLRLALDAMRDLAQCVNEVKRDNETLRQITNFQLSIENLDQSLANYGRPKIDGELKITSVERRSKTDRYAFLLDKALLICKRRGDSYDLKASVNLHSFQVRDDSSGERDNKKWSHMFLLIEDQGAQGYELFFKTRELKKKWMEQFEMAISNIYPENATANGHDFQMFSFEETTSCKACQMLLRGTFYQGYRCYRCRAPAHKECLGRVPPCGRHGQDFAGTMKKDKLHRRAQDKKRNELGLPKMEVFQEYYGIPPPPGAFGPFLRLNPGDIVELTKAEAEHNWWEGRNTATNEVGWFPCNRVHPYVHGPPQDLSVHLWYAGPMERAGAEGILTNRSDGTYLVRQRVKDTAEFAISIKYNVEVKHIKIMTSEGLYRITEKKAFRGLLELVEFYQQNSLKDCFKSLDTTLQFPYKEPERRAISKPPAGSTKYFGTAKARYDFCARDRSELSLKEGDIIKILNKKGQQGWWRGEIYGRIGWFPSNYVEEDYSEYC

The variants in this assay derive from B1. To be noted: with RAC1, P63000-1.
As to Y174F, the “effect of a mutation on the interaction” value is “increasing interaction”. On to K208A, for which the “effect of a mutation on the interaction” value is “increasing interaction”.
